Common to all, as to format: biochemical
Common to all, as to conditions: purified CHI in 50 mM PBS, 100 μM substrate, 25° C.

The nature of series [1]: Specific activity of purified CHI, absorbance decrease at 384 nm, eriodictyol chalcone. The protocol:
(§1) E. coli BL21 (DE3) cells containing one of the pET28b plasmids from Table 2 or Table 3 were used to inoculate 1 L LB medium at OD of 0.1. Cells were incubated at 37° C., 250 rpm until the OD reached 0.4-0.6 and induced by supplementing with 0.1 mM IPTG. After protein expression at 28° C., 250 rpm for 16 h, the cells were harvested by centrifugation at 4,000×g for 15 min. The harvested cells were lysed with 0.5 mg/mL lysozyme (Sigma-Aldrich), 0.4 U/mL Benzonase (Sigma-Aldrich) and BugBuster (Merck) at room temperature for 0.5 h to obtain a crude cell extract. The crude extract was centrifuged at 10,000×g for 30 min to remove the pellet. Recombinant proteins were purified by Ni-affinity chromatography (GE Healthcare). The supernatant of the crude extract was loaded on the column with 20 mM imidazole. The column was washed by 5 column volumes of 30 mM imidazole with 20 mM PBS (pH 7.4) and 500 mM NaCl. The target proteins were eluted by 150 mM imidazole with 20 mM PBS (pH 7.4) and 500 mM NaCl. Buffer exchange with 50 mM PBS (pH 7.5) was achieved by ultrafiltration with Amicon Ultra-15 (Merck). The activity of the respective purified enzyme was determined by measuring the absorbance decrease at 384 nm in the reaction mix (CHI in 50 mM PBS with 100 μM of either naringenin chalcone, hesperetin chalcone, eriodictyol chalcone, homoeriodictyol chalcone or 4-O-methyl butein at 25° C.).

A short description of series [2]: Specific activity of purified CHI, absorbance decrease at 384 nm, homoeriodictyol chalcone. The method, then: as §1
Series [3] in a line: Specific activity of purified CHI, absorbance decrease at 384 nm, naringenin chalcone. The method, then: as §1
Series [4] can be described thus: Specific activity of purified CHI, absorbance decrease at 384 nm, hesperetin chalcone. The method, then: as §1

We go through seven molecules from US20240150797A1, “BIOCATALYTICAL PRODUCTION OF DIHYDROCHALCONES” (Symrise AG, priority 2021, published 2024).

Residue numbers refer to the chain shown, from its start.

B1: CHIera Mut4: Chalcone isomerase variant 4 from Eubacterium ramulus, genetically engineered (protein, listed as Eubacterium ramulus)
chain: MADFKFEPMRSLIYVDCVSEDYRPKLQRWIYKVHIPDSISQFEPYVTKYAFYPSFPIPPQGDRFGYARMQLTEHHWLVSELDPRLEIKAIAETFPMDVLVWQGQIPAAAHTDAQIDSDGDAGRAAKKSNNAEGNPFIFAFLPMWWEKDLKGKGRTIEDGANYRFNMTIGFPEGVDKAEGEKWLFEKVVPILQAAPECTRVLASAVKKDINGCVMDWVLEIWFENQSGWYKVMVDDMKALEKPSWAQQDAFPFLKPYHNVCSAAVADYTPSNNLANYRGYITMR
Consider B1, for which, in series [1], the “Specific activity, Eriodictyol chalcone” value came out at 8.9. In series [2], the “Specific activity, Homoeriodctiol chalcone” value was determined as 4.8. Further, the “Specific activity, Naringenin chalcone” value in series [3] was determined as 2.3. Besides, in series [4], the “Specific activity, Hesperetin chalcone” value came out at 4.7.

B2: CHIera Mut10: Chalcone isomerase variant 10 from Eubacterium ramulus, genetically engineered (protein, listed as Eubacterium ramulus)
chain: B1 chain with E80I, R123D, K126R
B2: the “Specific activity, Eriodictyol chalcone” value in series [1] was 60.0. Further, the “Specific activity, Homoeriodctiol chalcone” value in series [2] is 17.9. Further, in series [3], the “Specific activity, Naringenin chalcone” value is 26.4. Besides, the “Specific activity, Hesperetin chalcone” value in series [4] is 96.4.

B3: CHIera Mut11: Chalcone isomerase variant 11 from Eubacterium ramulus, genetically engineered (protein, listed as Eubacterium ramulus)
chain: B1 chain with E80P, R123D, K126R
B3: the “Specific activity, Eriodictyol chalcone” value in series [1] is on record as 91.1. The “Specific activity, Homoeriodctiol chalcone” value in series [2] is listed as 30.8. Moreover, the “Specific activity, Naringenin chalcone” value in series [3] came to 76.8. Moreover, in series [4], the “Specific activity, Hesperetin chalcone” value was determined as 75.5.

B4: CHIera Mut9: Chalcone isomerase variant 9 from Eubacterium ramulus, genetically engineered (protein, listed as Eubacterium ramulus)
chain: B1 chain with E80M, R123N, K126R
As for B4, the “Specific activity, Eriodictyol chalcone” value in series [1] is 43.7. The “Specific activity, Homoeriodctiol chalcone” value in series [2] came to 14.4. The “Specific activity, Naringenin chalcone” value in series [3] worked out at 67.5. Also, in series [4], the “Specific activity, Hesperetin chalcone” value stood at 57.4.

B5: CHIera Mut12: Chalcone isomerase variant 12 from Eubacterium ramulus, genetically engineered (protein, listed as Eubacterium ramulus)
chain: B1 chain with Q41K, E80P, K88N, G122A, K126R
On to B5, for which the “Specific activity, Eriodictyol chalcone” value in series [1] is reported as 19.9. Besides, the “Specific activity, Homoeriodctiol chalcone” value in series [2] turned out to be 9.8. In addition, the “Specific activity, Naringenin chalcone” value in series [3] is 11.0. The “Specific activity, Hesperetin chalcone” value in series [4] was found to be 24.9.

B6: CHIera Mut7: Chalcone isomerase variant 7 from Eubacterium ramulus, genetically engineered (protein, listed as Eubacterium ramulus)
chain: B1 chain with Q41T, K88R, R123D, K126R
Turning to B6, in series [1], the “Specific activity, Eriodictyol chalcone” value is reported as 181.3. In addition, the “Specific activity, Homoeriodctiol chalcone” value in series [2] was 62.2. In series [3], the “Specific activity, Naringenin chalcone” value worked out at 61.4. The “Specific activity, Hesperetin chalcone” value in series [4] is reported as 28.4.

B7: CHIera Mut14: Chalcone isomerase variant 14 from Eubacterium ramulus, genetically engineered (protein, listed as Eubacterium ramulus)
chain: B1 chain with Q41K, K88N, G122H, K126R
In the case of B7, in series [1], the “Specific activity, Eriodictyol chalcone” value worked out at 27.2. Besides, in series [2], the “Specific activity, Homoeriodctiol chalcone” value was found to be 15.6. The “Specific activity, Naringenin chalcone” value in series [3] was determined as 29.5. The “Specific activity, Hesperetin chalcone” value in series [4] amounted to 4.5.
